Source: publication PMC10491619

Target: Exchange Protein Activated by cAMP 1, purified recombinant wild type
Assay: phase separation measured by centrifugation and A280 of the cleared supernatant; purified protein alone, with 30 uM cAMP; 5-25 uM protein at 50-250 mM NaCl, 25 mM Tris-HCl pH 8.8, 5 mM MgCl2; 20 °C, 15 min; 16,900 x g, 30 min

Exchange Protein Activated by cAMP 1, purified recombinant wild type, sequence (O95398 whole entry): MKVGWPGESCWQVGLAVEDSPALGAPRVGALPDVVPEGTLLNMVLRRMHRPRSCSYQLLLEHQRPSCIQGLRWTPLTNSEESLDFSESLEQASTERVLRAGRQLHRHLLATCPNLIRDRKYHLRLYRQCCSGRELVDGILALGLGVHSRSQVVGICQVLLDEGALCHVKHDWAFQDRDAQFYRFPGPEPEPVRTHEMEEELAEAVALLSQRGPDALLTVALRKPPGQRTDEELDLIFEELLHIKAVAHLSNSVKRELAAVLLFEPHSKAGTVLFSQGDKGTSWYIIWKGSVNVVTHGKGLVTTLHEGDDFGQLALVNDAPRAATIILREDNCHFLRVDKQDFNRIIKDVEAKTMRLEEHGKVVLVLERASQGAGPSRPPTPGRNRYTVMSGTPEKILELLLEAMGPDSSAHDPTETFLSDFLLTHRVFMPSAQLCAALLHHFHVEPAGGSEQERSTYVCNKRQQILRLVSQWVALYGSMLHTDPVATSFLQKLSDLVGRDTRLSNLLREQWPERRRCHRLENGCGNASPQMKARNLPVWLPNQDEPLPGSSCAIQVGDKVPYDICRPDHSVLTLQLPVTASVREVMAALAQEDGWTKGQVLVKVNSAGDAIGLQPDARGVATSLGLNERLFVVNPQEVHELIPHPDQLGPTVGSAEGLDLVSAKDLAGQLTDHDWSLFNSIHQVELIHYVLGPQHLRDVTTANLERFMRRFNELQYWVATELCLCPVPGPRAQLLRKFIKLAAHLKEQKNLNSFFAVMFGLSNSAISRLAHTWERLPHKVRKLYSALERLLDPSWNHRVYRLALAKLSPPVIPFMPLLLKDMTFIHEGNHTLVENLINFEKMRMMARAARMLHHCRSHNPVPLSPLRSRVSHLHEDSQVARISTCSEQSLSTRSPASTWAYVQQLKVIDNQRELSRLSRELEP

Exchange Protein Activated by cAMP 1, purified recombinant wild type (natural protein)
condensation ratio +cAMP/-cAMP at 150 mM salt: 2.5 | percent of protein in condensates (150 mM salt, with cAMP): 50%
